# Measured values from patent US20240182551A1 (published 2024).
# T1: HCoV-HKU1 recombinant soluble S ectodomain protein (prefusion-stabilized trimer) (HCoV-HKU1)
# T1 chain: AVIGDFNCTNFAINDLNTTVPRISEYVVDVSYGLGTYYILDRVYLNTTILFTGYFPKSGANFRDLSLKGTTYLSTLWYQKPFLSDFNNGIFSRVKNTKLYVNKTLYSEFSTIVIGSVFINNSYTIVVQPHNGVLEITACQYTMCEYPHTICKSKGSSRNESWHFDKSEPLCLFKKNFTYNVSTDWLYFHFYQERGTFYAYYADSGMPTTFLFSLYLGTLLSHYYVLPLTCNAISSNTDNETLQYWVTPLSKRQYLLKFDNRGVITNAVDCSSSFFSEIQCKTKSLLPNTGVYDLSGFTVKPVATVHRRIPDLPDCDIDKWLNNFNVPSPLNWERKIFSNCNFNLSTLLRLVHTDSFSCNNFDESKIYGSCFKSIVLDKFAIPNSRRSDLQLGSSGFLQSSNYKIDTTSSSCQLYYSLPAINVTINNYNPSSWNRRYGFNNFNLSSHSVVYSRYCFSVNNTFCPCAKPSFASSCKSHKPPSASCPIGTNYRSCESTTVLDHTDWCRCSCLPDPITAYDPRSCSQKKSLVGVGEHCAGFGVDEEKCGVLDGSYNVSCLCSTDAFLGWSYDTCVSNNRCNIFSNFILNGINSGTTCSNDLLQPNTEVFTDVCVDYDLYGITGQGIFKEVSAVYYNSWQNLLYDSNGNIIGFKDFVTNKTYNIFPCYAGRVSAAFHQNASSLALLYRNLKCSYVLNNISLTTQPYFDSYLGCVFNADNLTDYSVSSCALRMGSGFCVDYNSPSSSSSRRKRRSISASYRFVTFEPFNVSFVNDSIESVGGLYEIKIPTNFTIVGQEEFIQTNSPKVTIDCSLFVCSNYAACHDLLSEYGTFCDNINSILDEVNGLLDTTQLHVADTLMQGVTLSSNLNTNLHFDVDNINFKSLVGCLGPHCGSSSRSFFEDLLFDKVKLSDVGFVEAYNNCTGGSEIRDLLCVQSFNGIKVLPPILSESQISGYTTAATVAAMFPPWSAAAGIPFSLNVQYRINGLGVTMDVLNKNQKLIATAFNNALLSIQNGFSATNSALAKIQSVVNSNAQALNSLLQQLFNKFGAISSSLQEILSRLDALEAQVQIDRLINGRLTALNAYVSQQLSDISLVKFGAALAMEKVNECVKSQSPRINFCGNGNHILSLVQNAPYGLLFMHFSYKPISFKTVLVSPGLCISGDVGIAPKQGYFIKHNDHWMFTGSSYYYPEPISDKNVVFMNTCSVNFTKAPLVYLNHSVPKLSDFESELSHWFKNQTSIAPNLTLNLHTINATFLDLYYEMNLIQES
# B1: Fab CC9.2 (Fab, V domains shown)
# VH: EVQLVESGGGLVQPGRSLRLSCVAPGFTLGGYGMHWVRQAPGKGLEWVGLISYDGSVQKYGSSVKGRFTISKDNSKNTLYLEMNSLRADDTAVYFCVKGASLGDNWGQGTLVTVSS
# VL: EIVMTQSPLSLPVTLGQPASISCRSSQSLVYSDGDTYMSWFHQRPGQSPRRLIYKVSNRDFGVPDRFSGSGSGTDFTLKISRVEAEDVGVYYCMQGTHWPYTFGPGTKVEIK
# B2: CC9.2 IgG (antibody, V domains shown)
# VH: B1 VH
# VL: B1 VL
# B3: CC9.2 (IgG) (antibody, V domains shown)
# VH: B1 VH
# VL: B1 VL
# B4: CC9.2 Fab (Fab, V domains shown)
# VH: B1 VH
# VL: B1 VL
# B5: Fab CC9.3 (Fab, V domains shown)
# VH: QVQLQESGPGLVKPSETLSLTCTVSGGSIRSDFWSWIRQFPGKGLEWIGYIYYSGSTNYNPSLESRVTISVDTSKNEFSLKLNYVTAADTAIYYCARETRWNWLDSWGQGTLVTVSS
# VL: DIVMTQSPDSLAVSLGERASINCKSSQTISYISNNKNYLAWYQQKPGQPPRLLIYWASTRESGVPDRFSGGGFGTDFTLTISSLQAEDVAVYYCQQYFNTPWTFGQGTKVEIK
# B6: CC9.3 Fab (Fab, V domains shown)
# VH: B5 VH
# VL: B5 VL
# B7: CC9.3 IgG (antibody, V domains shown)
# VH: B5 VH
# VL: B5 VL
# B8: CC9.3 (IgG) (antibody, V domains shown)
# VH: B5 VH
# VL: B5 VL
# B9: CC40.8 IgG (antibody, V domains shown)
# VH: EVQLLESGGGLVQPGGSLRLSCAASGFTFSSYVMTWARQAPGKGLEWVSAISGTGYTYYADSVKGRFTVSRDNSKNTLFLQMSSLRAEDTAVYYCAITMAPVVWGQGTTVTVSS
# VL: SYELTQPPSVSVSPGQTARITCSGDALPKRYAYWYQQKSGQAPILVIYEDKKRPSGIPERLSGSKSGTVATLTISGAQVEDEADYYCYSTDSSGNHAVFGGGTQLTVL
# B10: Fab CC40.8 (Fab, V domains shown)
# VH: B9 VH
# VL: B9 VL
# B11: CC40.8 (IgG) (antibody, V domains shown)
# VH: B9 VH
# VL: B9 VL
# B12: CC40.8 Fab (Fab, V domains shown)
# VH: B9 VH
# VL: B9 VL
# Assays:
# [1] = biological target: T1, HCoV-HKU1 recombinant soluble S …; test: BLI
# SARS-CoV-2 S = SARS-CoV-2 S (SARS-CoV-2, UniProt P0DTC2 1-1208); test: BLI
Binder,Kd [1] [nM],Kd (SARS-CoV-2 S) [nM]
B1,< 1,–
B2,–,16
B3,< 1,–
B4,–,1680
B5,< 1,–
B6,–,112
B7,–,2
B8,< 1,–
B9,–,1
B10,< 1,–
B11,< 1,–
B12,–,5
